Experiment [1] has as its target S. cerevisiae Exo-9 core complex (recombinant, untagged) (S. cerevisiae, UniProt P46948;Q12277;P25359;Q05636;P53256;P48240;P38792;Q08285;P53859). In words: MST.
Experiment [2] addresses T1, S. cerevisiae Rrp45 (subunit of the crystallised Exo-9) (S. cerevisiae, UniProt Q05636 1-305).
T1 sequence: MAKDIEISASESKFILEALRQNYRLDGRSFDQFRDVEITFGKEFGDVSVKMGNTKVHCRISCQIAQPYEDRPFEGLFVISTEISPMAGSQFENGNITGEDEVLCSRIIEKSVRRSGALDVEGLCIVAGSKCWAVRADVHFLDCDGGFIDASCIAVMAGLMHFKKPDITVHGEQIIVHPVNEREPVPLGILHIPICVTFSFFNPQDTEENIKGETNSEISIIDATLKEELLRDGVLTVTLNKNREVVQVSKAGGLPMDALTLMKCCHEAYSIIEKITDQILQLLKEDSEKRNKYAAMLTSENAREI
The experiment can be described thus: crystal structure.

B1: Mpp6^FL S184C labeled with red-maleimide (natural protein)
chain: MSANNGVTGKLSSRVMNMKFMKFGKTDDEESSNSNTPSNINSDVEPIEQKGKLFGLDDSAWDLNSYKDDLKKISGKEKKKVKRVVYKKRPNLIISNVGYSELRKPEGVISGRKTFGDNSDDSGSRKRKFDEGEQNEDEKRDAKDKEFTGSQDDGEDEYDLDKLFKDSIKKKKTNHNGKNKNRNCKK
modifications: cysteine-reactive fluorophore (red-maleimide) on the introduced cysteine 184
As usually defined, the Kd is a measure of binding affinity in units of concentration. In the case of B1, in experiment [1], the Kd was ~82 nM.

B2: S. cerevisiae Rrp40 (subunit of the crystallised Exo-9) (natural protein)
chain: MSTFIFPGDSFPVDPTTPVKLGPGIYCDPNTQEIRPVNTGVLHVSAKGKSGVQTAYIDYSSKRYIPSVNDFVIGVIIGTFSDSYKVSLQNFSSSVSLSYMAFPNASKKNRPTLQVGDLVYARVCTAEKELEAEIECFDSTTGRDAGFGILEDGMIIDVNLNFARQLLFNNDFPLLKVLAAHTKFEVAIGLNGKIWVKCEELSNTLACYRTIMECCQKNDTAAFKDIAKRQFKEILTVKEE
As for B2, the binding result in experiment [2] is given as “binds”.
